The results in this text go back to PMC9210341 (2022).

The experiment deals with SARS-CoV-2 prototype receptor binding domain (residues 319-541) (SARS-CoV-2, UniProt P0DTC2 319-541). The experiment in a line: SPR. For orientation: SPR reads the build-up and loss of mass on a sensor chip optically.

Where “and” joins values, the source holds several entries; their conditions need not be identical. Equal values may be shown once.

B1: equine angiotensin converting enzyme 2 (residues 19-615) (receptor)
chain: STTEDLAKTFLEKFNSEAEELSHQSSLASWSYNTNITDENVQKMNEAGARWSAFYEEQCKLAKTYPLEEIQNLTVKRQLQALQQSGSSVLSADKSKRLNEILNTMSTIYSTGKVCNPSNPQECLLLEPGLDAIMENSKDYNQRLWAWEGWRSEVGKQLRPLYEEYVVLKNEMARANNYEDYGDYWRGDYEAEGPSGYDYSRDQLIEDVERTFAEIKPLYEHLHAYVRAKLMDTYPSHINPTGCLPAHLLGDMWGRFWTNLYSLTVPFGQKPNIDVTDAMVDQSWDAKRIFEEAEKFFVSVGLPNMTQGFWENSMLTEPGDGRKVVCHPTAWDLGKGDFRIKMCTKVTMDDFLTAHHEMGHIQYDMAYAVQPYLLRNGANEGFHEAVGEIMSLSAATPNHLKAIGLLPPDFYEDSETEINFLLKQALTIVGTLPFTYMLEKWRWMVFKGEIPKEEWMKKWWEMKREIVGVVEPVPHDETYCDPAALFHVANDYSFIRYYTRTIYQFQFQEALCQTAKHEGPLHKCDISNSTEAGQKLLQMLSLGKSEPWTLALERIVGVKNMDVRPLLNYFEPLFTWLKDQNKNSFVGWSTNWSPYAD
Consider B1, for which the Kd – broadly, the concentration at which binding is half-saturated – is 87.7 nM and 200 nM.
